# Experimental data taken from US11813311B2, “Treatment and prevention of metabolic diseases” (Singapore Health Services PTE LTD., priority 2019, dated 2023).
# B1: X209: mouse anti-mouse IL-11Rα IgG (IgG1κ), neutralising; VH SEQ ID NO:24, VL SEQ ID NO:25 (antibody, V domains shown)
# VH: QVQLQQPGAELVRPGSSVKLSCKASGYTFTNYWMHWLKQRPVQGLEWIGNIGPSDSKTHYNQKFKDKATLTVDKSSSTAYMQLNSLTSEDSAVYYCARGDYVLFTYWGQGTLVTVSA
# VL: DIVLTQSPATLSLSPGERATLSCRASQSISNNLHWYQQKSHEAPRLLIKYASQSISGIPARFSGSGSGTDFTLSFSSLETEDFAVYFCQQSYSWPLTFGQGTKLEIK
# modifications: Enx209 VH; Enx209 VL
# B2: X203: mouse anti-mouse IL-11 IgG (IgG1κ), neutralising; VH SEQ ID NO:22, VL SEQ ID NO:23 (antibody, V domains shown)
# VH: EVQLQQSGPELVKPGASVKIPCKASGYTFTDYNMDWVKQSHGKSLEWIGDINPHNGGPIYNQKFTGKATLTVDKSSSTAYMELRSLTSEDTAVYYCARGELGHWYFDVWGTGTTVTVSS
# VL: DIVLTQSPASLAVSLGQRATISCRASKSVSTSGYSYIHWYQQKPGQPPKLLIYLASNLDSGVPARFSGSGSGTDFTLNIHPVEEEDAATYYCQHSRDLPPTFGGGTKLEIK
# modifications: Enx203 VH; Enx203 VL
# Key:
# Assay type in all cases: in vivo, mouse
# [1] = test system: HFMCD-fed mice; assay: Early-stage HFMCD NASH, antibody from week 1; details: for development of fibrosis / lipid droplets in livers: HFMCD, 10 mg/kg biweekly from week 1; for hepatic lipid metabolism (lipogenesis and β-oxidation gene expression): RNA-seq, compared to IgG
# Protocol: FIGS. 22A to 22K. Neutralisation of Il-11 signalling reverses liver damage in early stage NASH. (A) Relative liver mRNA expression of fibrosis and inflammation markers from mice fed with NC or HFMCD diets for the indicated time points. (B) Schematic of the anti-IL-11 therapy experiment early on in the HFMCD diet NASH model. Antibody treatments were started 1 week after the start of NASH diet when X209, X203, or IgG (10 mg/kg, biweekly) were administered intraperitoneally for 5 weeks. (C) Representative gross liver images and (D) Masson's Trichrome stained images of livers (scale bars, 100 μm) after 5 weeks of IgG or X209 treatments. (E) Hepatic triglyceride levels (n≥5/group), (F) liver hydroxyproline content of X209- and IgG-treated mice (n≥5/group), (G) serum ALT levels (n≥5/group). (H) Immunofluorescence images of IL6R and IL11RA expression in hepatocytes (scale bars, 100 μm). Dose-dependent effect of (I) IL-11 on ALT in hepatocyte supernatant and (J) stress fibers formation (rhodamine-phalloidin staining) in hepatocyte (scale bars, 200 μm). (K) IL-11 protein is secreted from primary human hepatocytes stimulated with TGFβ1 (5 ng/ml); 24 h. (E) Data are shown as box-and-whisker with median (middle line), 25th-75th percentiles (box) and min-max percentiles (whiskers); (F-G,I,K) data are shown as mean±s.d. (E) Tukey-corrected Student's t-test; (F,G) two-way ANOVA; (I,K) two-tailed Dunnett's test. FC: fold change; NC: normal chow; HFMCD: high fat methionine- and choline-deficient.
# High fat methionine and choline-deficient (HFMCD) diet fed wild-type mice Five week old male C57BL/6N mice were fed with Methionine and Choline deficient diet supplemented with 60 kcal % fat (A060713011316, Research Diets); control mice were fed with normal chow (NC, Specialty Feeds). Durations of diet and antibody therapies are described.
# Immune cells were isolated from liver as described previously 20. Liver tissues were minced and digested with 100 μg/ml Collagenase IV and 20 U/ml DNase I, at 37° C. for 1 h. Following digestion, cells were passed through strainer to obtain single cell suspension and subjected to percoll gradient centrifugation for isolation of immune cells. CyTOF staining was performed as previously described 21. Cells were thawed and stained with cisplatin (Fluidigm) to identify live cells, followed by staining with metal-conjugated CD45 antibody, for barcoding purpose. After barcoding, cells were stained with metal-conjugated cell surface antibody (Ly6C). Cells were then fixed with 1.6% PFA, permeabilized with 100% methanol, and subjected to intracellular antibody staining (TGFβ1). Cells were labeled with DNA intercalator before acquisition on Helios mass cytometer (Fluidigm). For analysis, first live single cells were identified, followed by debarcoding to identify individual samples. Manual gating was performed using Flowjo software (Flowjo).
# [2] = test system: mice with folate-induced kidney injury; assay: Weight loss after folate-induced acute kidney injury
# Protocol: Kidney injury was induced by IP injection of folic acid (180 mg/kg) in vehicle (0.3M NaHCO3) to 10-week old male mice; control mice were administered vehicle alone. Animals were sacrificed 28 days post-injection. Mice were intraperitoneally injected every 3 days with 20 mg/kg of anti-IL-11 antibody, anti-IL-11 RA antibody or identical concentration of IgG isotype control starting from 1 hour before folic acid administration until the mice were sacrificed.
# In a second experiment kidney injury was induced as before by IP injection of folic acid. Mice were only treated with anti-IL-11 antibody or IgG control from 21 days after kidney injury. Animal weight was assessed before and after antibody treatment.
# [3] = Long-term high dose preclinical toxicology of X209 and X203; details: 10 mg/kg ×2/week, 5 months
# Protocol: FIGS. 19A to 19J. Anti-IL-11 therapies inhibit HSC-to-myofibroblasts transformation in an ERK dependent manner and have a favourable metabolic safety profile. (A) Dose-response curve and IC50 value of X203 and X209 and ([…] to 4 μg/ml; 4-fold dilution) in inhibiting MMP2 secretion by TGFβ1-stimulated HSCs. (B) ELISA of IL-11 secretion from HSCs stimulated with various NASH factors (n≥5/group). (C) Representative fluorescence images and quantification of ACTA2^+ve cells from HSCs treated with TGFβ1 and other NASH factors in the presence of IgG, X203, or X209 (scale bars, 100 μm and dotted line represents the median value of baseline). (D) Effects of X203 and X209 on PDGF- or CCL2-induced HSC invasion. (E) Western blots of p-ERK and ERK in HSC lysates stimulated IL-11 (upper panel) or with various NASH factors in the presence of IgG or X209 (bottom panel). (F) Representative fluorescence images and quantification of ACTA2^+ve cells in HSCs treated with IL-11 and important NASH factors in the presence of ERK/MEK inhibitors U0126 or PD98059 (scale bars, 100 μm and dotted line represents the median value of baseline). (A-F) TGFβ1 (5 ng/ml), IL-11 (5 ng/ml), PDGF (20 ng/ml), AngII (100 nM), bFGF (10 ng/ml), CM (5 ng/ml), H2O2 (0.2 mM), IgG, X203 and X209 (2 μg/ml), U0126 or PD98059 (10 μM); (A,C,E-F) 24 h; (B,D) 48 h. (G) Peripheral platelet counts, (H) serum ALT levels, (I), serum triglycerides levels, and (J) serum cholesterol levels from mice injected biweekly with 10 mg/kg of X203 and X209 for 5 months (n≥5/group). (B,D) Data are shown as mean±s.d; (C,F,G-J) data are shown as box-and-whisker with median (middle line), 25th-75th percentiles (box) and min-max percentiles (whiskers). (B,D,G-J) Two-tailed Dunnett's test; (C, F) two-tailed, Tukey-corrected Student's t-test. FC: fold change.
# The published literature on IL-11 in the liver is limited but injection of high dose recombinant human IL-11 into rodents has been associated with protective effects^13,14 and there is confusion as to a role for IL-11 in platelets biology^25. To exclude safety issues, the inventors performed long-term (5 months) high dose (10 mg/kg×2/week) preclinical toxicology studies of X209 and X203 and observed no effect on serum ALT levels or platelets (FIG. 19G-19H). Consistent with the data in the Il11ra^−/− mice, anti-IL-11 therapies lowered, or trended towards lowering, serum lipid levels during this treatment period (FIGS. 19I-19J).
# [4] = 20 mg/kg every 3 days from 1 hour before folic acid
Molecule,circulating TGFβ1 levels ([1]; HFMCD diet),development of fibrosis [1],lipid droplets in livers [1],hepatic lipid metabolism (lipogenesis and β-oxidation gene expression) [1],"Ly6C+veTGFβ1+ve cells ([1]; during steatohepatitis, CyTOF)","immune cells in liver ([1]; during steatohepatitis, CyTOF)","body weight [2, 4]",platelets [3],serum ALT levels [3],body weight ([2]; treated from 21 days after kidney injury)
B1,reduced,nor did these mice develop fibrosis,not seen,"more so than X203, improved hepatic lipid metabolism",specific reduction,fewer immune cells,"returned to normal, or near normal, weight by 3 weeks later",no effect,no effect,
B2,,nor did these mice develop fibrosis,not seen,improved hepatic lipid metabolism,,,"returned to normal, or near normal, weight by 3 weeks later",no effect,no effect,started to regain weight upon initiation of treatment
